The record followed here is patent publication US20250223378A1 (MABCARE THERAPEUTICS, published 2025).

Experiment [1] has as its target T1, PTK7 on the SK-OV-3 cell line (human ovarian cancer cells) (human, UniProt Q13308 31-1070).
T1 construct: whole, on cells
T1 sequence (looked up): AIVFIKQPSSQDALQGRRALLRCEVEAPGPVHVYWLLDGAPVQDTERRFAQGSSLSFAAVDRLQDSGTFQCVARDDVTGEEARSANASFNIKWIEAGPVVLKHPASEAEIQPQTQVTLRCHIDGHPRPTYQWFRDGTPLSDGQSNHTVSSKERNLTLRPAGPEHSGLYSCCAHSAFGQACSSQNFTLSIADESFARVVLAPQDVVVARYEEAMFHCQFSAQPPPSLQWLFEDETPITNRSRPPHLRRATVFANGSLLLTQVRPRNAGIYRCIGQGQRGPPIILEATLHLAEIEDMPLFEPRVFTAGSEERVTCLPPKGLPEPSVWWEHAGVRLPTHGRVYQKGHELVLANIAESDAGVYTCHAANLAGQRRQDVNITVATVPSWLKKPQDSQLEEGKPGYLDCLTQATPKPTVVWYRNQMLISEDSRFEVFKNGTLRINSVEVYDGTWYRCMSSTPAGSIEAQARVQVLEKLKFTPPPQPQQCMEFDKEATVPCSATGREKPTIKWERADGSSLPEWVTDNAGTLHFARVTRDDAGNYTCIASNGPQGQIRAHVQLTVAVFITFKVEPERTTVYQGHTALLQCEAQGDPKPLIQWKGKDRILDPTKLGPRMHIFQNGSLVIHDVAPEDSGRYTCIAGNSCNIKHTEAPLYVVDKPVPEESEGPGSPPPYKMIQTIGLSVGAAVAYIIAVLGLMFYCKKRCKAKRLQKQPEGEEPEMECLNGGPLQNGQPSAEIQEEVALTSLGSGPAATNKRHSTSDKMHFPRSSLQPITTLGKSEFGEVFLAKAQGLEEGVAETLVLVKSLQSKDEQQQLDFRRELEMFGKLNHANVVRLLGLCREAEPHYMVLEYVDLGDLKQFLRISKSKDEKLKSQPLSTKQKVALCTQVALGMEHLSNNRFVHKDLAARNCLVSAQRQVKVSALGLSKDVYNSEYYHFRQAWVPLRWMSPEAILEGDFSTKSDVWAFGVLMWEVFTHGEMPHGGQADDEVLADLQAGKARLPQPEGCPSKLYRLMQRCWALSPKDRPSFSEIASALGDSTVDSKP
The experiment in a line: flow cytometry on SK-OV-3 cells, FITC goat anti-human secondary antibody, MFI. The method, then:
SK-OV-3 (human ovarian cancer cells, ATCC, Catalog No. HTB-77) was digested with trypsin in a culture dish, and the digested cells were centrifuged at 1000 rpm for 5 min and then blocked with 10% goat serum (purchased from Beijing Solarbio Science & Technology Co. Ltd., Item No. SL038) for 30 min. The anti-PTK7 antibodies as prepared in Example 2 of the present disclosure were diluted in a 3-fold gradient with a starting concentration of 500 nM. At the end of dilution, the gradient diluted anti-PTK7 antibodies were added to the cells, incubated for 1 h, and washed twice with PBS. Then, FITC-labeled goat anti-human secondary antibody (purchased from Jackson ImmunoResarch, Item No. 109-545-008) was added at 1:500, incubated for 1 h, and finally washed twice with PBS. The results were analyzed by flow cytometry.
In general terms: Flow cytometry measures light scatter and fluorescence of single cells or particles in a stream.

The target of experiment [2] is T2, murine PTK7 protein (Catalog No. PT7-M52H3, Acrobiosystems) (murine, UniProt Q8BKG3 23-696).
T2 construct: Bought protein; also called mouse PTK7
T2 sequence (looked up): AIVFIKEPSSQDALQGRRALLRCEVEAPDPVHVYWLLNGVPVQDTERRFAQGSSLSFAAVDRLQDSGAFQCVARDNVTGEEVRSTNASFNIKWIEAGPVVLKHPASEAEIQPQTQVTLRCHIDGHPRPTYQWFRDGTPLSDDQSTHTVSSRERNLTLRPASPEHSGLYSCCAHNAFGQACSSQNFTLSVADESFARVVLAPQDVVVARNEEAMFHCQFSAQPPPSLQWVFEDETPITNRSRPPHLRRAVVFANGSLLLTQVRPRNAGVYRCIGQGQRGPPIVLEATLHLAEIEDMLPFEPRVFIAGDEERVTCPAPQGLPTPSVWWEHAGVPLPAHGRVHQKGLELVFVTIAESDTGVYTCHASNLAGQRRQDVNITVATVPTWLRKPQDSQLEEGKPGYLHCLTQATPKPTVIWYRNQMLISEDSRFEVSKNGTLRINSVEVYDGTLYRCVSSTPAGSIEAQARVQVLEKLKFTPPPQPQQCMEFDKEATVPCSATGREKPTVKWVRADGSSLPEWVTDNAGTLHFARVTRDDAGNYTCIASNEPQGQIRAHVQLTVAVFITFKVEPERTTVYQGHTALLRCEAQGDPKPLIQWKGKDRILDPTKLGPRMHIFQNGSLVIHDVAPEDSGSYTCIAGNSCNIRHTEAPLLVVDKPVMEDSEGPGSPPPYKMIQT
As to the kind of experiment: ELISA, PTK7 protein immobilized on the plate, peroxidase anti-human IgG, OD450. The method, then:
(§1) Human PTK7 protein (Catalog No. PT7-H52H3, Acrobiosystems), monkey PTK7 protein (Catalog No. PT7-C52H3, Acrobiosystems), and murine PTK7 protein (Catalog No. PT7-M52H3, Acrobiosystems) were incubated at 4° C. overnight and immobilized onto a 96-well plate. The plate was then blocked by incubating at 37° C. with 1% BSA in PBS for 1 h. After blocking, the plate was washed 3 times with PBST (PBS containing 0.05% Tween 20). Serial dilutions of anti-PTK7 antibody as prepared in Example 2 of the present disclosure was prepared in a binding buffer (PBS containing 0.05% Tween20 and 0.5% BSA) and incubated with the immobilized proteins at 37° C. for 1 h. After binding, the plate was washed 3 times with PBST, incubated with peroxidase-labeled donkey anti-human IgG (Jackson ImmunoResearch) diluted at 1/15,000 in the binding buffer at 37° C. for 1 h, washed again, developed with TMB and terminated with 1M H₂SO₄. The absorbance at 450 nm-620 nm was measured.

For experiment [3], the target named is T3, monkey PTK7 protein (Catalog No. PT7-C52H3, Acrobiosystems) (monkey, UniProt A0A2K5VNQ6 31-704).
T3 construct: Bought protein; not shown: The vendor's purification tag, probably a C-terminal His tag
T3 sequence: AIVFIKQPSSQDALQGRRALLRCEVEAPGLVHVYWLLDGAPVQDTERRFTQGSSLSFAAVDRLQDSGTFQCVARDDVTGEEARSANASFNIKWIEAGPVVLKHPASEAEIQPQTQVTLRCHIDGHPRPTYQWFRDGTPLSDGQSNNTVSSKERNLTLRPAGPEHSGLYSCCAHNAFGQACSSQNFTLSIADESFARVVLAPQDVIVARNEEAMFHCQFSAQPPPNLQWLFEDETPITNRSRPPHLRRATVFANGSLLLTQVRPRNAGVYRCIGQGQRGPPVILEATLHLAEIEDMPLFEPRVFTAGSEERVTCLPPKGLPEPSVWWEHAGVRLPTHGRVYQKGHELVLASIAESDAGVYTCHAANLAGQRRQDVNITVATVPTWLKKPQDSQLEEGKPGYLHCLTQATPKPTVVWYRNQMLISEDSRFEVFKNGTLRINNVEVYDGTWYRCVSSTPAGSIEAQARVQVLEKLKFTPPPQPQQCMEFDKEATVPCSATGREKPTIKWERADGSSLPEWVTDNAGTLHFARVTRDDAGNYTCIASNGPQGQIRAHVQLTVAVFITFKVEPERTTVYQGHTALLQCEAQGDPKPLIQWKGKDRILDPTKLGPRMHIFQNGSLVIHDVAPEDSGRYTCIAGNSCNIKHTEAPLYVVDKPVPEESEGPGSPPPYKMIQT
The experiment is described as above. On the procedure:
as §1

In experiment [4] the target is T4, Human PTK7 protein (Catalog No. PT7-H52H3, Acrobiosystems) (human, UniProt Q13308 31-704).
T4 construct: Bought protein
T4 sequence (looked up): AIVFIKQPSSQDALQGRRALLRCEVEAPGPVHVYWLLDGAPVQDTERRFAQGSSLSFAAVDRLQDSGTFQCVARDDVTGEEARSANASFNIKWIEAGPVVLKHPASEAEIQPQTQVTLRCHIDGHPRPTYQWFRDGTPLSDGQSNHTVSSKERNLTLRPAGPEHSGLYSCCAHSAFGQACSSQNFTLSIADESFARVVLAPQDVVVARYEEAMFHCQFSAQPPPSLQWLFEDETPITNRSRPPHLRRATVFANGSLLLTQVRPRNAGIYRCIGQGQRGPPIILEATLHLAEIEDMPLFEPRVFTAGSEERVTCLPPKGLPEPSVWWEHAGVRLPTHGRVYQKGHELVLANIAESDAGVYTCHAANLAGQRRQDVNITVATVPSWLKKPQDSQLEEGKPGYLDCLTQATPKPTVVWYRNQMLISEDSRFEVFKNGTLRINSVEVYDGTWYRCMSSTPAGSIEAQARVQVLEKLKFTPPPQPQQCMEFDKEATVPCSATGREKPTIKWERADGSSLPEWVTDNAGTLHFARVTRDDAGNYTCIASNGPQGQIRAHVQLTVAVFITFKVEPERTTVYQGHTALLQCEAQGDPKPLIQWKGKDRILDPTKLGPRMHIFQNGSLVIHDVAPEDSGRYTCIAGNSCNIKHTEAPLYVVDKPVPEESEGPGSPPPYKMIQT
The experiment is described as above. The method, then:
as §1

As a reminder, the EC50 is the concentration at which the effect is half-maximal.

B1: humanized PTK7 antibody Hu13H3L3 (antibody, V domains shown)
VH: QVQLVQSGAEVKKPGASVKISCKGSGYTFTDYGMHWLKQAPGQGLEWIGVISPYYGDVNYNQKFQGRATMTVDKSISTAYMELSRLRSDDTAVYYCARGMGYWGQGTLVTVSS
VL: DVQITQSPSFLSASVGDRVTITCRASQSISKYLAWYQQKPGKAPKLLIYSGSTLQSGVPSRFSGSGSGTEFTLTISSLQPEDFAMYYCQQHNEYPWTFGQGTKVEIK
B1 yielded an EC50 in experiment [1] of 0.156 nM.

B2: humanized PTK7 antibody Hu13H2L3 (antibody, V domains shown)
VH: QVQLVQSGAEVKKPGASVKVSCKGSGYTFTDYGMHWLRQAPGQGLEWMGVISPYYGDVNYNQKFQGRVTMTRDKSISTAYMELSRLRSDDTVVYYCARGMGYWGQGTLVTVSS
VL: DVQITQSPSFLSASVGDRVTITCRASQSISKYLAWYQQKPGKAPKLLIYSGSTLQSGVPSRFSGSGSGTEFTLTISSLQPEDFAMYYCQQHNEYPWTFGQGTKVEIK
For the molecule B2, a half-maximal response in experiment [1] (EC50) required 0.213 nM.

B3: humanized PTK7 antibody Hu13H3L0 (Ab13) (antibody, V domains shown)
VH: QVQLVQSGAEVKKPGASVKISCKGSGYTFTDYGMHWLKQAPGQGLEWIGVISPYYGDVNYNQKFQGRATMTVDKSISTAYMELSRLRSDDTAVYYCARGMGYWGQGTLVTVSS
VL: DIQLTQSPSFLSASVGDRVTITCRASQSISKYLAWYQQKPGKAPKLLIYSGSTLQSGVPSRFSGSGSGTEFTLTISSLQPEDFATYYCQQHNEYPWTFGQGTKVEIK
For B3, a half-maximal response in experiment [1] (EC50) required 0.19 nM.

B4: humanized PTK7 antibody Hu13H2L0 (antibody, V domains shown)
VH: QVQLVQSGAEVKKPGASVKVSCKGSGYTFTDYGMHWLRQAPGQGLEWMGVISPYYGDVNYNQKFQGRVTMTRDKSISTAYMELSRLRSDDTVVYYCARGMGYWGQGTLVTVSS
VL: DIQLTQSPSFLSASVGDRVTITCRASQSISKYLAWYQQKPGKAPKLLIYSGSTLQSGVPSRFSGSGSGTEFTLTISSLQPEDFATYYCQQHNEYPWTFGQGTKVEIK
With B4, in experiment [1], the EC50 came out at 0.163 nM.

B5: humanized PTK7 antibody Hu13H3L5 (antibody, V domains shown)
VH: QVQLVQSGAEVKKPGASVKISCKGSGYTFTDYGMHWLKQAPGQGLEWIGVISPYYGDVNYNQKFQGRATMTVDKSISTAYMELSRLRSDDTAVYYCARGMGYWGQGTLVTVSS
VL: DVQITQSPSYLSASPGDRITITCRASQSISKYLAWYQQKPGKANKLLIYSGSTLQSGVPSRFSGSGSGTEFTLTISSLQPEDFAMYYCQQHNEYPWTFGQGTKVEIK
B5: in experiment [1], the response was half-maximal at 0.161 nM (EC50).

B6: human-murine chimeric PTK7 antibody ch13 (antibody, V domains shown)
VH: QVQLQQSGAELVRPGVSVKISCKGSGYTFTDYGMHWLKQSHAKSLEWIGVISPYYGDVTYNQKFKGKATMTVDKSSSTAYMELARLTSEDSAIYYCARGMGYWGQGTSVTVSS
VL: DVQITQSPSYLAASPGETITINCRASQSISKYLAWYQEKPGKTNKLLIYSGSTLQSGIPSRFSGSGSGTDFTLTISSLEPEDFAMYYCQQHNEYPWTFGGGTKLEIK
In the case of B6, the values for the EC50 in experiment [1], in experiment [3] and in experiment [4] were 0.189 nM, 0.0472 nM and 0.0571 nM, respectively. For the same molecule, the binding result in experiment [2] is on record as “no binding”.
